From US20140289906A1, “Compositions Having Dicamba Decarboxylase Activity and Methods of Use” (priority 2013, published 2014)
Entries after “also recorded” stand apart in the source; their conditions may differ.

What was measured:
[1] = 14C assay: 14CO2 capture from [14C]-carboxyl-labeled dicamba with IPTG-induced recombinant E. coli cells; settings: for Enzymatic Detection level: dicamba decarboxylation activity; for Dicamba Decarboxylase Activity: IPTG-induced recombinant E. coli cells, 14CO2 from [14C]-carboxyl-labeled dicamba
[2] = Dicamba decarboxylation activity of computationally designed protein variants and parents (Tables 4, 5); settings: native proteins and designed variants; assay not specified

B1: 124 (protein)
chain: MAQGKVALEEHFAIPETLQDSAGFVPGDYWKELQHRLLDIQDTRLKLMDAHGIETMILSLAAPAVQAIPDRRKAIEIARRANDFLAEECAKRPDRFLAFAALPLQDPDAATEELQRCVNDLGFVGALVNGFSQEGDGQTPLYYDLPQYRPFWGEVEKLDVPFYLHPRNPLPQDSRIYDGHPWLLGPTWAFAQETAVHALRLMASGLFDEHPQLNIILGHMGEGLPYMMWRIDHRVAWGKLPPAYPAKRRFMDYFNENFHITTSGNFRTQTLIDAILEIGADRILFSTDWPFENIDHASDWFNATSIAEADRVKIGRTNARRLFKLDGD
modifications: Dicamba decarboxylase variant clone S03969214
Enzymatic Detection level [1]: High

B2: 125 (protein)
chain: MAQGKVALEEHFAIPETLQDSAGFVPGDYWKELQHRLLDIQDTRLKLMDAHGIETMILSLAAPAVQAIPDRRKAIEIARRANDFLAEECAKRPDRFLAFAALPLQDPDAATEELQRCVNDLGFVGALVNGFSQEGDGQTPLYYDLPQYRPFWGEVEKLDVPFYLHPRNPLPQDSRIYDGHPWLLGPTWAFAQETAVHALRLMASGLFDEHPRLQIILGHMGEGLPYMMYRIDHRIAWVHEPPRYPAKRRFMDYFNENFHITTSGNFRTQTLIDAILEIGADRILFSTDWPFENIDHASDWFNATSIAEADRVKIGRTNARRLFKLDGA
modifications: Dicamba decarboxylase variant clone S03970523
Enzymatic Detection level [1]: High

B3: 18 (protein, listed as Legionella pneumophila)
chain: MAIVDFETHFITEACIDYLTQRQEVPKLVPELNGAYTMCFTPDVSLFHTSALMEELLSLNEQRLAIMDQAGVTIQVLSLTTINGIDSCPGDENKSTALAREVNDQLYSAIQKHPERFKGFASISPYDVKEGVKELERAISQLGFVGWLTHSNFGQDNYLDDKIYWPLLEAAESLNIPIYLHPNVPIMREFGKYGFALGGSALGFEFDTALCLMRMILGGVFDAFPKLKIMLGHLGETMPFLMERLDHLYRIPDLKPYRPSIQRIPSEVLRQNVYITTSGRFFVPALRYVLEVMGEDRVLFASDYPMESLLDATRFIQDSDLSNQTKQKIFSINAKNLNLI
Dicamba Decarboxylase Activity [1]: Low
Enzymatic Detection level [1]: Low

B4: 20 (protein, listed as Legionella pneumophila)
chain: MAIVDFETHFITEACIDYLTQRQEVPKLVPDLNGAYTMCFTPDVSLFHTSALMEELLSLNEQRLAIMDQAGVTIQVLSLTTINGIDSCPGDENKSTALAREVNDQLYSAIQRHPERFKGFASISPYDVKEGVKELERAISQLGFVGWLTHSNFGQDNYLDDKTYWPLLEAAEGLNIPIYLHPNVPIMREFGKYGFALGGSALGFEFDTALCLMRMILGGVFDAFPKLKIMLGHLGETMPFLMERLDHLYRIPDLKAYRPSIQRIPSEVLRQNVYITTSGRFFVPALRYVLEVMGEDRVLFASDYPMESLLDATRFIQDSDLSNQTKQKIFSINAKNLNLI
Dicamba Decarboxylase Activity [1]: Low
Enzymatic Detection level [1]: Low

B5: 95 (protein, listed as Pseudomonas fluorescens)
chain: MAKKPRIDMHSHFFPRISEQEAAKFDANHAPWLQVSAKGDTGSIMMGKNNFRPVYQALWDPAFRIEEMDAQGVDVQVTCATPVMFGYTWEANKAAQWAERMNDFALEFAAHNPQRIKVLAQVPLQDLDLACKEASRAVAAGHLGIQIGNHLGDKDLDDATLEAFLTHCANEDIPILVHPWDMMGGQRMKKWMLPWLVAMPAETQLAILSLILSGAFERIPKSLKICFGHGGGSFAFLLGRVDNAWRHRDIVREDCPRPPSEYVDRFFVDSAVFNPGALELLVSVMGEDRVMLGSDYPFPLGEQKIGGLVLSSNLGESAKDKIISGNASKFFNINV
dicamba decarboxylase activity (statement in the description) [2]: not active for dicamba decarboxylation; also recorded: Neither of the native proteins have dicamba decarboxylase activity
Dicamba Decarboxylase Activity [1]: No
Enzymatic Detection level [1]: No

B6: 23 (protein, listed as Aplysina aerophoba)
chain: MAIDIDARSQPGLETARRAMSRRDFLGGAAAFGITAAATTALPASTAAGEEEDLFLLGLEEHFATAELRRLNGIQFPQGTPRFDINDVGAGRIADMDAAGIDIQVLSALTPGAQNLPGAEGVAYARRLNSWVAHEVIPAYPGRFRAFATLPLSEPQAAADELEYAVRELGFLGCMTYGAVDGKFLDHADFVPVLARAETLDVPIYIHPNWASPQVMDTYYNGLGNEWVSRVLSGAGYGWHQEVALQCLRMIASGVFDRFPRLQIIVGHMGEGLPFFYWRFGDDLARITADTLEKPVQQYFHDNFWITTSAFFRDELLRLVLSVMGEDRVMFAVDYPFVSNKVGADWFRAVDLPRNVKEKIAHKNAERLLKIGPF
Dicamba Decarboxylase Activity [1]: Low
Enzymatic Detection level [1]: Low

B7: 25 (protein, listed as Acidovorax avenae)
chain: MAQGKIGLEEHFAIPETLQDSAGFVPGDYWKELSLRLLDIHERRLREMDENGMEMMILSLNAPAVQAIPDTKKAVEIAVRANDFLAEQVARRPDRFQAFAALPMQDPDLATRELERCMQDLGFRGALVNGFSQVGTPENVVYYDAPQYGDFWAAVERLDAPFYLHPRNPIASWAQIYQGHPWLMGPTWAFAQETAVHALRLMASGLFDRHPGLRIILGHLGEGLPYNMWRVDHRNAWVDMPKGYPAKRKLCDYFHENFYLTTSGNFRTQTLIDALLEVGADRILFSTDWPFENVDHAAHWFDDAAISEADRLKIGRTNALSLFKLPQG
Dicamba Decarboxylase Activity [1]: Low
Enzymatic Detection level [1]: Low

B8: 27 (protein, listed as Aspergillus oryzae)
chain: MALGKIALEEAFALPRFEEKTRWWASLFSTDAETHVKEITDINKIRIEHADKHGVGYQILSYTAPGVQDIWDPVEAQALAVEINDYIAEQVRVNPDRFGAFATLSMHNPKEAADELRRCVEKYGFKGALVNDTQRAGPDGDDMIFYDNADWDIFWQTCTELDVPFYMHPRNPTGTIYEKLWADRKWLVGPPLSFAHGVSLHVLGMVTNGVFDRHPKLQIIMGHLGEHVPFDMWRINHWFEDRKKLLGLAETCKKTIRDYFAENIWITTSGHFSTTTLNFCMAEVGSDRILFSIDYPFETFSDACEWFDNAELNGTDRLKIGRENAKKLFKLDSYKDSSA
Dicamba Decarboxylase Activity [1]: No
Enzymatic Detection level [1]: No

B9: 29 (protein, listed as Pseudovibrio sp.)
chain: MAGRRDFLRKSVAAGVGLTAAAQLSAGGAQATVPDTSNIPLITLEEHFTTPELQSKNTSGDKRLFSGGGSRPELLDVGAGRIADMDEAGIDIQVLSTVTPGASKITGAEGVEFTRKFNTWIAEEVIAAYPNRFRAFATLPLSSPEAAADELERSVREYGFVGTMTYGPIDGKFLDHADYAPLLARAEALGVPIYIHPNWPSPTAMQAYYDGLGDDLTSRILSGPGYGWHQEIAVQCLRLIVGGVFDRFPNLQIVVGHMGEGLPFYYWRVGEDLDRIAQKRLQKPVQQYFHDNLWITTSAFFRDELLNLALATMGEDRVMFSVDYPMASAKVGADWLRAADIPLATKEKIGSKNAMKLLGIDKI
Dicamba Decarboxylase Activity [1]: No
Enzymatic Detection level [1]: No

B10: 24 (protein)
chain: MALGKVVLEEAYERPNMKEKSNHEAGLYIAPNDRPRYMRQINDINQERLKLADAHGVGYTIISLTVPGIQGIFDKTEAERVATETNNWAAEQIKNHRDRLGAFACLSMHDPAQAANELRRCVQELGFHGALLCSFQHAGPDGETYLFYDQPKYDVFWKALTELDVPLYIHPAAPTGSILERLYAQRPALIGPPLSFANDVSLHTLGIISNGVFDRFPNLKIIIGHLGEHIPFDFWRIDHWFRDVKKPIADEEGRVMAQKSLYHYFKHNIWLTTSGHFSTPTLKYVVNEIGVDRVLFSVDYPYETTESGCNWWDHDKDAIVEAVGGVDNYYAIGRENAKKLLRLDKFHDSDAR
modifications: Aspergillus niger
Dicamba Decarboxylase Activity [1]: Low
Enzymatic Detection level [1]: Low
